According to PMC8298264, “Function of cofactor Akirin2 in the regulation of gene expression in model human neutrophil-like HL60 cells” (Bioscience Reports, 2021):

B1: sp¦Q9HAV4¦XPO5_HUMAN (protein, UniProt Q9HAV4 2-1204, looked up)
Exportin-5: AMDQVNALCEQLVKAVTVMMDPNSTQRYRLEALKFCEEFKEKCPICVPCGLRLAEKTQVAIVRHFGLQILEHVVKFRWNGMSRLEKVYLKNSVMELIANGTLNILEEENHIKDALSRIVVEMIKREWPQHWPDMLIELDTLSKQGETQTELVMFILLRLAEDVVTFQTLPPQRRRDIQQTLTQNMERIFSFLLNTLQENVNKYQQVKTDTSQESKAQANCRVGVAALNTLAGYIDWVSMSHITAENCKLLEILCLLLNEQELQLGAAECLLIAVSRKGKLEDRKPLMVLFGDVAMHYILSAAQTADGGGLVEKHYVFLKRLCQVLCALGNQLCALLGADSDVETPSNFGKYLESFLAFTTHPSQFLRSSTQMTWGALFRHEILSRDPLLLAIIPKYLRASMTNLVKMGFPSKTDSPSCEYSRFDFDSDEDFNAFFNSSRAQQGEVMRLACRLDPKTSFQMAGEWLKYQLSTFLDAGSVNSCSAVGTGEGSLCSVFSPSFVQWEAMTLFLESVITQMFRTLNREEIPVNDGIELLQMVLNFDTKDPLILSCVLTNVSALFPFVTYRPEFLPQVFSKLFSSVTFETVEESKAPRTRAVRNVRRHACSSIIKMCRDYPQLVLPNFDMLYNHVKQLLSNELLLTQMEKCALMEALVLISNQFKNYERQKVFLEELMAPVASIWLSQDMHRVLSDVDAFIAYVGTDQKSCDPGLEDPCGLNRARMSFCVYSILGVVKRTCWPTDLEEAKAGGFVVGYTSSGNPIFRNPCTEQILKLLDNLLALIRTHNTLYAPEMLAKMAEPFTKALDMLDAEKSAILGLPQPLLELNDSPVFKTVLERMQRFFSTLYENCFHILGKAGPSMQQDFYTVEDLATQLLSSAFVNLNNIPDYRLRPMLRVFVKPLVLFCPPEHYEALVSPILGPLFTYLHMRLSQKWQVINQRSLLCGEDEAADENPESQEMLEEQLVRMLTREVMDLITVCCVSKKGADHSSAPPADGDDEEMMATEVTPSAMAELTDLGKCLMKHEDVCTALLITAFNSLAWKDTLSCQRTTSQLCWPLLKQVLSGTLLADAVTWLFTSVLKGLQMHGQHDGCMASLVHLAFQIYEALRPRYLEIRAVMEQIPEIQKDSLDQFDCKLLNPSLQKVADKRRKDQFKRLIAGCIGKPLGEQFRKEVHIKNLPSLFKKTKPMLETEVLDNDGGGLATIFEP
B2: sp¦Q16822¦PCKGM_HUMAN (protein, UniProt Q16822 33-640, looked up)
Phosphoenolpyruvate …: LSGDLGQLPTGIRDFVEHSARLCQPEGIHICDGTEAENTATLTLLEQQGLIRKLPKYNNCWLARTDPKDVARVESKTVIVTPSQRDTVPLPPGGARGQLGNWMSPADFQRAVDERFPGCMQGRTMYVLPFSMGPVGSPLSRIGVQLTDSAYVVASMRIMTRLGTPVLQALGDGDFVKCLHSVGQPLTGQGEPVSQWPCNPEKTLIGHVPDQREIISFGSGYGGNSLLGKKCFALRIASRLARDEGWLAEHMLILGITSPAGKKRYVAAAFPSACGKTNLAMMRPALPGWKVECVGDDIAWMRFDSEGRLRAINPENGFFGVAPGTSATTNPNAMATIQSNTIFTNVAETSDGGVYWEGIDQPLPPGVTVTSWLGKPWKPGDKEPCAHPNSRFCAPARQCPIMDPAWEAPEGVPIDAIIFGGRRPKGVPLVYEAFNWRHGVFVGSAMRSESTAAAEHKGKIIMHDPFAMRPFFGYNFGHYLEHWLSMEGRKGAQLPRIFHVNWFRRDEAGHFLWPGFGENARVLDWICRRLEGEDSARETPIGLVPKEGALDLSGLRAIDTTQLFSLPKDFWEQEVRDIRSYLTEQVNQDLPKEVLAELEALERRVHKM
B3: sp¦Q9GZY6¦NTAL_HUMAN (protein, UniProt Q9GZY6 1-243, looked up)
Linker for activation of …: MSSGTELLWPGAALLVLLGVAASLCVRCSRPGAKRSEKIYQQRSLREDQQSFTGSRTYSLVGQAWPGPLADMAPTRKDKLLQFYPSLEDPASSRYQNFSKGSRHGSEEAYIDPIAMEYYNWGRFSKPPEDDDANSYENVLICKQKTTETGAQQEGIGGLCRGDLSLSLALKTGPTSGLCPSASPEEDEESEDYQNSASIHQWRESRKVMGQLQREASPGPVGSPDEEDGEPDYVNGEVAATEA
B4: sp¦Q8IX12¦CCAR1_HUMAN (protein, UniProt Q8IX12 1-1150, looked up)
Cell division cycle and …: MAQFGGQKNPPWATQFTATAVSQPAALGVQQPSLLGASPTIYTQQTALAAAGLTTQTPANYQLTQTAALQQQAAAAAAALQQQYSQPQQALYSVQQQLQQPQQTLLTQPAVALPTSLSLSTPQPTAQITVSYPTPRSSQQQTQPQKQRVFTGVVTKLHDTFGFVDEDVFFQLSAVKGKTPQVGDRVLVEATYNPNMPFKWNAQRIQTLPNQNQSQTQPLLKTPPAVLQPIAPQTTFGVQTQPQPQSLLQAQISAASITPLLQTQPQPLLQQPQQKAGLLQPPVRIVSQPQPARRLDPPSRFSGRNDRGDQVPNRKDDRSRERERERRRSRERSPQRKRSRERSPRRERERSPRRVRRVVPRYTVQFSKFSLDCPSCDMMELRRRYQNLYIPSDFFDAQFTWVDAFPLSRPFQLGNYCNFYVMHREVESLEKNMAILDPPDADHLYSAKVMLMASPSMEDLYHKSCALAEDPQELRDGFQHPARLVKFLVGMKGKDEAMAIGGHWSPSLDGPDPEKDPSVLIKTAIRCCKALTGIDLSVCTQWYRFAEIRYHRPEETHKGRTVPAHVETVVLFFPDVWHCLPTRSEWETLSRGYKQQLVEKLQGERKEADGEQDEEEKDDGEAKEISTPTHWSKLDPKTMKVNDLRKELESRALSSKGLKSQLIARLTKQLKVEEQKEEQKELEKSEKEEDEDDDRKSEDDKEEEERKRQEEIERQRRERRYILPDEPAIIVHPNWAAKSGKFDCSIMSLSVLLDYRLEDNKEHSFEVSLFAELFNEMLQRDFGVRIYKSLLSLPEKEDKKEKDKKSKKDERKDKKEERDDETDEPKPKRRKSGDDKDKKEDRDERKKEDKRKDDSKDDDETEEDNNQDEYDPMEAEEAEDEEDDRDEEEMTKRDDKRDINRYCKERPSKDKEKEKTQMITINRDLLMAFVYFDQSHCGYLLEKDLEEILYTLGLHLSRAQVKKLLNKVVLRESCFYRKLTDTSKDEENHEESESLQEDMLGNRLLLPTPTVKQESKDVEENVGLIVYNGAMVDVGSLLQKLEKSEKVRAEVEQKLQLLEEKTDEDEKTILNLENSNKSLSGELREVKKDLSQLQENLKISENMNLQFENQMNKTIRNLSTVMDEIHTVLKKDNVKNEDKDQKSKENGASV
B5: sp¦P00387¦NB5R3_HUMAN (protein, UniProt P00387 2-301, looked up)
NADH-cytochrome b5 reductase 3: GAQLSTLGHMVLFPVWFLYSLLMKLFQRSTPAITLESPDIKYPLRLIDREIISHDTRRFRFALPSPQHILGLPVGQHIYLSARIDGNLVVRPYTPISSDDDKGFVDLVIKVYFKDTHPKFPAGGKMSQYLESMQIGDTIEFRGPSGLLVYQGKGKFAIRPDKKSNPIIRTVKSVGMIAGGTGITPMLQVIRAIMKDPDDHTVCHLLFANQTEKDILLRPELEELRNKHSARFKLWYTLDRAPEAWDYGQGFVNEEMIRDHLPPPEEEPLVLMCGPPPMIQYACLPNLDHVGHPTERCFVF

Each molecule was assayed on human HL60 cells (assay: SWATH-MS proteomics, differential protein representation, akirin2 KO vs WT HL60 cells). Details: akirin2 KO vs WT HL60 cells; sheet "Under-represented in KO".
Format: cell-based
Procedure, shortened: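 WT and akirin2 KO HL60 lysates (150 µg, n=3 biological replicates) were FASP trypsin-digested and desalted. A spectral library was built by IDA from 3 µg digests, then 5 µg per sample went to variable-window SWATH DIA over a 120-min 5–30% acetonitrile gradient. Identifications were accepted at 1% global FDR, with total-area-sum normalization.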

B1 was tested. Which “Fold Change” value did it give?
The value was 0.4142.

And the “Log (Fold Change)” value?
Its value is -0.3828.

How did the “Fold Change” value turn out when B2 was run?
Its value is 0.1415.

And the “Log (Fold Change)” value?
The value was -0.8493.

What does the source list for B3?
Fold Change: 0.3739; Log (Fold Change): -0.4273

With B4 as the molecule, how does the “Fold Change” value read?
The value was 0.4166.

What about the “Log (Fold Change)” value of the same molecule?
Its value is -0.3803.

How did the “Fold Change” value turn out when B5 was run?
The value was 0.3747.

And the “Log (Fold Change)” value?
Its value is -0.4263.
